Data reported in patent publication US20060034835A1 (Genentech, published 2006).
Blank lines part the entries; values can stand above or below the molecule they belong to.

Assays:
[1] = molecular target: human CD20 (human) (UniProt P11836); test: cell-based or functional assay
[2] = molecular target: T1, human CD20 (human, UniProt P11836 1-297); test: cell-based ELISA on WIL2-S cells
T1 construct: whole, on cells; also called CD20 antigen; Bp35
T1 sequence (looked up): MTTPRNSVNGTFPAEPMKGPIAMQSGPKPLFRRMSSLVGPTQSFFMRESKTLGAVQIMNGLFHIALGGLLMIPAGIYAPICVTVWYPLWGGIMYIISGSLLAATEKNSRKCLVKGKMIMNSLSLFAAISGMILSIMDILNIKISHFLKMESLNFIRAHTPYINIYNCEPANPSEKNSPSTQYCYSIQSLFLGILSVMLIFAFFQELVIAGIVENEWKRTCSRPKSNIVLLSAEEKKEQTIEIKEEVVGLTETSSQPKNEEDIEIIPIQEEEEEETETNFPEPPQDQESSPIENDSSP
Procedure: To measure relative binding affinities to the CD20 antigen, a cell-based ELISA assay was developed. […] The cells were washed with PBS containing 1% FBS (assay buffer) and seeded at 250-300,000 cell/well in 96-well round bottom plates (Nunc, Roskilde, Denmark). […] The plates were buried in ice and incubated for 45 min. To remove the unbound antibody, 0.1 mL assay buffer were added to the wells. Plates were centrifuged and supernatants were removed. Cells were washed two more times with 0.2 mL assay buffer. Antibody bound to the plates was detected by adding peroxidase conjugated goat anti-human Fc antibody (Jackson ImmunoResearch, West Grove, Pa.) to the plates. After a 45 min incubation, cells were washed as described before. TMB substrate (3,3′,5,5′-tetramethyl benzidine; Kirkegaard & Perry Laboratories, Gaithersburg, Md.) was added to the plates. The reaction was stopped by adding 1 M phosphoric acid. Titration curves were fit with a four-parameter nonlinear regression curve-fitting program (KaleidaGraph, Synergy software, Reading, Pa.). The absorbance at the midpoint of the titration curve (mid-OD) and its corresponding concentration of the standard were determined. Then the concentration of each variant at this mid-OD was determined, and the concentration of the standard was divided by that of each variant.

ADCC: EC50(variant)/EC50(2H7.v16) [1]: 5.3
ADCC: EC50(variant)/EC50(Rituxan) [1]: 1
CDC: EC50(variant)/EC50(Rituxan) [1]: 1
apoptosis of Ramos cells: fraction of Annexin V stained cells at 10 nM crosslinked antibody [1]: 16.5%
apoptosis of Ramos cells: fraction of doubly labeled cells at 10 nM crosslinked antibody [1]: 38%
apoptosis of Ramos cells: live cells counted per 10 s at 10 nM crosslinked antibody (cells per 10 s) [1]: 3100
Molecule: Rituxan (rituximab) (antibody)

Relative binding [2]: 0.99 ratio to 2H7.v16
B1: 2H7 version 166 (antibody, human IgG1, kappa, V domains shown)
VH: EVQLVESGGGLVQPGGSLRLSCAASGYTFTSYNMHWVRQAPGKGLEWVGAIYPGNGDTSYNQKFKGRFTISVDKSKNTLYLQMNSLRAEDTAVYYCARVVYYGGDWYFDVWGQGTLVTVSS
VL: DIQMTQSPSSLSASVGDRVTITCRASSSVSYMHWYQQKPGKAPKPLIYAPSNLASGVPSRFSGSGSGTDFTLTISSLQPEDFATYYCQQWSFNPPTFGQGTKVEIKR
notes: IgG1; Y100b is deleted (written as a substitution with an empty new residue)
